Assay results published in US12441790B2, “Binding proteins to the human thrombin receptor, PAR4” (MONASH UNIVERSITY, priority 2017, dated 2025).
Numbering of substitutions follows the chain as printed.

What was measured:
human whole blood = test: Human whole blood thrombosis assay; type: cell-based; details: 10 minute endpoint; 5A.RC3 100 μg/ml, hirudin 800 U/ml
Description: Human whole blood collected in citrate (3.2%) was pre-incubated for 15 min at 37° C. with PE-conjugated anti-CD9 antibody (4 μg/mL) and an anti-fibrin antibody (5 μg/ml), and one of hirudin (800 U/ml), DMSO (1% v/v), PAR-1 antagonist E5555 (1 μM), anti-PAR4 antibody (0.2 mg/ml) or the combination of both PAR inhibitors. Whole blood was re-calcified with 5-7.5 mM CaCl2 (final concentration) to initiate coagulation, and drawn over glass microslides (1×0.1 mm internal diameter) coated with bovine type 1 collagen (250 μg/ml) at a fixed flow rate of 0.06 ml/min, resulting in a wall shear rate of 600 s^−1. Dual colour confocal fluorescence images were recorded at 488 and 561 nm excitation, collected through a 40× water immersion objective. Confocal z-stacks were continuously recorded for 2 min before modified, calcium-free Tyrode's buffer was flowed over the thrombi and z-stacks encompassing the entire height of the thrombus field were recorded over a period of 10 min. Platelet thrombi were defined using anti-CD9-PE and fibrin volume was quantified using average fluorescence of the thrombus field. Data were normalised against the hirudin baseline and expressed as a percentage of the control.
Thrombosis parameters including platelet deposition, thrombin activity, fibrin volume and ratio of fibrin per thrombus were measured in real-time over a period of 10 minutes in a whole blood thrombosis assay as described herein under conditions of coagulation.
Platelet deposition (PE-conjugated anti-CD9), thrombin activity (FRET-based thrombin probe), fibrin volume (Dylight650-conjugated anti-fibrin antibody) and the ratio of fibrin per thrombus at the 10 minute end-point is shown in FIG. 10A by confocal microscopy (to allow for volume measurements to be taken) using a Nikon Air with a 25× lens and 2× digital magnification.
The volume of human thrombi formed after 3 min was quantified by confocal microscopy in an ex vivo human whole blood thrombosis assay.

hPAR4 peptide [1] = biological target: T1, hPAR4 peptide (Homo sapiens, UniProt Q96RI0); test: ELISA of purified mAbs on hPAR4 peptide; type: binding; details: dilutions of purified mAbs
T1 construct: host or cells: synthetic peptide
T1 sequence (Q96RI0 35-54 limits assumed): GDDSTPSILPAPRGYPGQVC
Description: (§1) The kinetics of the binding interaction between the mAbs and hPAR4 was measured using Surface Plasmon Resonance (SPR; Biacore) by two different methods: 1. Anti-mouse Fc mAb capture method and 2. Streptavidin (SA) chip to capture biotinylated peptide. The ka(on) rate and kd(off) rates and KD were measured and fitted to a Langmuir model using the Biacore evaluation software.
The experiment was completed with purified mAbs diluted in PBS instead of hybridoma supernatants.
The reactivity of seven purified anti-hPAR4 mAbs was analysed by ELISA (see Table 4).

[2] = biological target: T2, hPAR4-biotinylated peptide (Homo sapiens, UniProt Q96RI0); test: SA chip biotin peptide SPR (Biacore, streptavidin capture); type: binding
T2 construct: host or cells: synthetic peptide
T2 sequence (Q96RI0 with tags, fused parts or gaps limits assumed): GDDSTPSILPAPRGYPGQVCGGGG
Description: (§2) Biacore analysis was performed on a Biacore T200 using two different methods either an anti-mouse Fc capture approach or using a similar method as described above using the ProteoOn system.
A series S sensor chip SA was conditioned using the manufacturers recommended protocol and immobilised with 1 ug/ml hPAR4-biotinylated peptide on FC2 and hPAR1-biotinylated peptide as a control onto FC1. […] Blank injections of buffer alone were also performed. All injections were performed in duplicate and in a random order. After each capture/injection/dissociation cycle the chip was regenerated with a 30 second injection of 0.1M Glycine pH2.0.
(§3) For the mAb capture method low levels of ligand mAb and analyte hPAR4 were used in an attempt to produce a 1:1 binding interaction, this method has been used successfully to measure kinetics and affinity KD's (Kamat V and Rafique A (2017) Analytical Biochemistry 530:75-86), despite using a whole IgG.
as §1

hPAR4 peptide [3] = biological target: T1, hPAR4 peptide; test: mAb capture SPR (Biacore, anti-mouse Fc capture); type: binding
Description: as §2
A series S CM5 sensor chip was activated with standard EDC/NHS amine coupling chemistry using the manufacturers recommended protocol with Goat anti-mouse IgG Fc. Anti-hPAR4 mAbs were captured at 1-2 ug/ml for 2 minutes at 10 ul/minute on flow cell 2 (FC2) and flow cell 1 (FC1) was used as a reference channel. […] Blank injections of buffer alone were also performed. All injections were performed in duplicate and in a random order. After each capture/injection/dissociation cycle the chip was regenerated with a 30 second injection of 0.1M Glycine pH2.0.
as §3, §1

human platelets = test: Functional screen of hybridoma supernatants by platelet aggregation assay; type: cell-based; details: aggregation as % of control
Description: Platelet aggregation was measured by light transmission aggregometry in a 96-well plate format. Human isolated platelets (2×10^8/ml) were pre-treated for 10 mins at 37° C. with dimethylsulfoxide (DMSO) (1% v/v), the PAR1 antagonist vorapaxar (90 nM), the anti-PAR4 antibody 5RC3 (20-100 μg/ml), or a combination of vorapaxar and 5RC3. Platelets were treated with one of thrombin (0.1 U/ml) and aggregation was analysed at 37° C. in a FLUOstar OPTIMA plate reader (BMG Labtech) using a 595 nm excitation filter, for a period of 50 min (10 read cycles with 5 min double orbital shake period between each read). Optical density was normalised against the blank (maximum) and unstimulated platelets (minimum) and expressed as % maximum.
Thrombin-induced platelet aggregation in the presence of a PAR1 antagonist (i.e. PAR4-dependent aggregation) is shown for 30 monoclonal antibody supernatants binding to human platelets. Antibody supernatant was mixed with human platelets (2×10^8 cells) at a 1:1 ratio.

hirudin [reference compound] was tested, and the fibrin volume (human whole blood) was “abolished”, the platelet deposition (human whole blood) was “continued platelet deposition” and the thrombin activity (human whole blood) was “abolished”.

B1: 5H.RF2: anti-PAR4 monoclonal antibody, IgG2a/K, SEQ ID NOs 107 and 108 (antibody, V domains shown)
VH: QVQLQQWGAGLLKPSETLALTCAVYGGSLSDYYWSWIRQPPGKGLEWIGEINHSGTTNYNPSLKSRVTISVDTSKKQFSLKLSSVTAADTAVYYCAIEYSNSRGYYYGMDVWGQGTTVTVSS
VL: DIQMTQSPSSLSASAGDRITITCRASQTISNYLNWYQQKPGKAPKLLIYAASSLQSGVPSRFSGSGSGTDFTLTISSLQPEDFASYYCRQNYNTPLTFGGGTKVEIK
modifications: VH of 5H.RF2; VL of 5H.RF2
B1 was tested, and the “reactivity with hPAR4 peptide by ELISA” value (hPAR4 peptide [1]) was “least reactive”, the ka [2] was 1.84e+06 M⁻¹ s⁻¹ and the kd [2] was 0.00111 s⁻¹. It also gave a ka (hPAR4 peptide [3]) of 58400 M⁻¹ s⁻¹ and a kd (hPAR4 peptide [3]) of 0.00227 s⁻¹.

B2: 5I.RG1: anti-PAR4 monoclonal antibody, IgG3/K, SEQ ID NOs 45 and 46 (antibody, V domains shown)
VH: QVQLQQWGAGLLKPSETLSLACAISSGSFSTYFWRWIRQPPGKGLEWIGEIIHTGSTTYNPSLKSRVTISVDTSKNQLSLKLSSVTAADTAVYYCAFEYSSSGGYYYGMDVWGQGTTVTVSS
VL: DIQMTQSPSSLSASVGDRVTITCRASQSISSYLNWYQQIPGKAPNLLIYAASSLRSGVPSRFSGSGSGTDFTLTISSLQPEDFATYYCQQTYSTPLTFGGGTKVEIK
modifications: VH of 5I.RG1; VL of 5I.RG1
For B2, the “reactivity with hPAR4 peptide by ELISA” value (hPAR4 peptide [1]) was “least reactive”, the ka [2] was 1.85e+06 M⁻¹ s⁻¹ and the kd [2] was 0.000667 s⁻¹. For the same molecule, the ka (hPAR4 peptide [3]) was 14000 M⁻¹ s⁻¹ and the kd (hPAR4 peptide [3]) was 0.00146 s⁻¹.

B3: MoB5H H4: hybridoma supernatant clone, second screening; likely parent of 5H.RH4 (antibody, V domains shown)
VH: QVQLQQWGAGLLKPSETLSLTCAVYGGSFSNYYWSWIHQPPGKGLEWIGEINHSGSTNYNPSLKSRVTISVDTSKKQFSLNLSSVTAADTAVYYCKVEHSSSSGHYYYGMDVWGQGTTVTVSS
VL: B2 VL with S28T, S31Y, I39K, N45K, S53R, R55Q, A84T, T91S, E105G
With B3 the “Functional screen on hybridoma supernatants” value (“Functional screen” for short) (human platelets) was “Yes (+) (aggregation between 50-80% of control)”.

B4: MoB5H F2: hybridoma supernatant clone, second screening; likely parent of 5H.RF2 (antibody, V domains shown)
VH: B1 VH
VL: B1 VL
In the case of B4, the “Functional screen” value (human platelets) is reported as “no”.

B5: MoB5I G1: hybridoma supernatant clone, second screening; likely parent of 5I.RG1 (antibody, V domains shown)
VH: B2 VH
VL: B2 VL
In the case of B5, the “Functional screen” value (human platelets) is reported as “Yes (+) (aggregation between 50-80% of control)”.
